Laboratory results taken from the supplement of paper PMC9732359.
± gives the uncertainty stated by the source.

Experiment: protein stability index of a GFP-peptide fusion (yeast GPS) (PSI 1-4); higher = more stable; sorted into four equal gates, so the index is relative within each strain
Procedure, shortened: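 Tiled yeast protein peptides of 17 residues were each joined downstream of GFP, on plasmids that also express Cherry. The pooled library was maintained in yeast, and mid-log cultures in leucine-free medium were sorted into four equal gates on the GFP/Cherry ratio. Plasmids from every gate were amplified by PCR and sequenced on Illumina, with barcodes linking reads to strains. The protein stability index of a peptide is its gate-number-weighted read frequency summed over the gates.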

## PKWERVFLFDIEKVDRE [RRI2]
doa10∆
  protein stability index: 2.4 ± 0.1
pdr5∆
  protein stability index: 2.33 ± 0.056
san1∆
  protein stability index: 2.1 ± 0.1
ubr1∆
  protein stability index: 2.57 ± 0.073

## TLPQPRLNKLNSNGIAM [SMD1]
doa10∆
  protein stability index: 2.3 ± 0.11
pdr5∆
  protein stability index: 2.27 ± 0.069
san1∆
  protein stability index: 1.72 ± 0.094
ubr1∆
  protein stability index: 2.15 ± 0.053

## SGEDAEEELWNSPSKGN [YIL149C/MLP2]
doa10∆
  protein stability index: 3.15 ± 0.13
pdr5∆
  protein stability index: 3.25 ± 0.084
san1∆
  protein stability index: 3.28 ± 0.058
ubr1∆
  protein stability index: 3.21 ± 0.065

## VHGKAPMLMANNDVFTI [SSN3]
doa10∆
  protein stability index: 2.79 ± 0.068
pdr5∆
  protein stability index: 2.47 ± 0.07
san1∆
  protein stability index: 2.48 ± 0.095
ubr1∆
  protein stability index: 2.72 ± 0.074

## NTQDLLLLLSLFKKITN [YML103C/NUP188]
doa10∆
  protein stability index: 1.26 ± 0.038
pdr5∆
  protein stability index: 1.3 ± 0.033
san1∆
  protein stability index: 1.58 ± 0.068
ubr1∆
  protein stability index: 1.55 ± 0.036

## ETQVEVEKNEIGKMYDE [NNF1]
doa10∆
  protein stability index: 3.05 ± 0.19
pdr5∆
  protein stability index: 3.21 ± 0.11
san1∆
  protein stability index: 2.98 ± 0.17
ubr1∆
  protein stability index: 3.37 ± 0.13

## DILSKLYLLLARVFEIW [SNF11]
doa10∆
  protein stability index: 2.15 ± 0.044
pdr5∆
  protein stability index: 2.36 ± 0.053
san1∆
  protein stability index: 2.19 ± 0.07
ubr1∆
  protein stability index: 2.39 ± 0.041

## GLFDSFTNGVLAVTNLL [YML031W/NDC1]
doa10∆
  protein stability index: 2.64 ± 0.14
pdr5∆
  protein stability index: 2.95 ± 0.22
san1∆
  protein stability index: 2.75 ± 0.11

## AILYTKPGHVLQEEWDQ [YGR119C/NUP57]
pdr5∆
  protein stability index: 3.25 ± 0.14
ubr1∆
  protein stability index: 3.81 ± 0.23

## NKGWKLQSLNESKDLLR [SRB4]
doa10∆
  protein stability index: 2.81 ± 0.13
pdr5∆
  protein stability index: 2.57 ± 0.1
san1∆
  protein stability index: 2.32 ± 0.11
ubr1∆
  protein stability index: 2.93 ± 0.15

## EQSNSRKRTRSEAEQID [YCG1]
doa10∆
  protein stability index: 3.35 ± 0.19
pdr5∆
  protein stability index: 3.4 ± 0.26
san1∆
  protein stability index: 2.81 ± 0.1

## PQEETITFLIEKAKEMI [ECM29]
doa10∆
  protein stability index: 3.03 ± 0.092
pdr5∆
  protein stability index: 3.18 ± 0.13
san1∆
  protein stability index: 2.95 ± 0.069
ubr1∆
  protein stability index: 3.16 ± 0.075

## RVSLQDIKDFADKVYTK [QCR2]
doa10∆
  protein stability index: 2.85 ± 0.069
pdr5∆
  protein stability index: 3.07 ± 0.082
san1∆
  protein stability index: 2.62 ± 0.079
ubr1∆
  protein stability index: 2.67 ± 0.076

## IQSAESIKSQKEEISDQ [SWI3]
doa10∆
  protein stability index: 2.4 ± 0.26
pdr5∆
  protein stability index: 3.08 ± 0.14
san1∆
  protein stability index: 2.58 ± 0.098
ubr1∆
  protein stability index: 2.85 ± 0.11

## EDLFDDYPSTSLDIRHD [NUT1]
doa10∆
  protein stability index: 1.81 ± 0.081
pdr5∆
  protein stability index: 2.9 ± 0.077
san1∆
  protein stability index: 3.09 ± 0.058
ubr1∆
  protein stability index: 2.05 ± 0.056

## KERISVAAASKILSNLV [PRE2]
doa10∆
  protein stability index: 2.75 ± 0.059
pdr5∆
  protein stability index: 2.69 ± 0.041
san1∆
  protein stability index: 2.78 ± 0.048
ubr1∆
  protein stability index: 2.71 ± 0.034

## TSCTIPKAVVDHINGSG [GAL11]
doa10∆
  protein stability index: 2.23 ± 0.083
pdr5∆
  protein stability index: 2.78 ± 0.077
san1∆
  protein stability index: 1.24 ± 0.12
ubr1∆
  protein stability index: 1.79 ± 0.087

## LIASHYGVSFFTIQSFV [BRR2]
doa10∆
  protein stability index: 1.92 ± 0.043
pdr5∆
  protein stability index: 1.89 ± 0.039
san1∆
  protein stability index: 1.48 ± 0.063
ubr1∆
  protein stability index: 1.81 ± 0.051

## NSSSSTPNTNSNSTPNA [SWI1]
doa10∆
  protein stability index: 2.96 ± 0.087
pdr5∆
  protein stability index: 2.98 ± 0.09
san1∆
  protein stability index: 3.12 ± 0.069
ubr1∆
  protein stability index: 3.21 ± 0.059

## GFYQIKKIVDSKKLNLK [YMR129W/POM152]
doa10∆
  protein stability index: 3.11 ± 0.12
pdr5∆
  protein stability index: 2.98 ± 0.092
san1∆
  protein stability index: 2.41 ± 0.24
ubr1∆
  protein stability index: 2.62 ± 0.11

## KTSLSIKVENLNDTTEK [SMC2]
doa10∆
  protein stability index: 2.87 ± 0.058
pdr5∆
  protein stability index: 2.97 ± 0.081
san1∆
  protein stability index: 3.09 ± 0.063
ubr1∆
  protein stability index: 2.89 ± 0.05

## FAAAPNDTSSGTNAMLP [SNF5]
doa10∆
  protein stability index: 3.13 ± 0.078
pdr5∆
  protein stability index: 3.26 ± 0.13
san1∆
  protein stability index: 3.06 ± 0.096
ubr1∆
  protein stability index: 2.89 ± 0.1

## NMPNCDYLTLNKVVVNL [RPN2]
doa10∆
  protein stability index: 2.99 ± 0.054
pdr5∆
  protein stability index: 2.88 ± 0.061
san1∆
  protein stability index: 2.58 ± 0.068
ubr1∆
  protein stability index: 3.02 ± 0.051

## SLTLSFIRHVAKLNYKN [ECM29]
doa10∆
  protein stability index: 2.7 ± 0.092
pdr5∆
  protein stability index: 2.87 ± 0.088
san1∆
  protein stability index: 2.91 ± 0.054
ubr1∆
  protein stability index: 2.92 ± 0.048

## KDDRFVPVRKFKGNNGV [RPN2]
doa10∆
  protein stability index: 2.02 ± 0.07
pdr5∆
  protein stability index: 2.77 ± 0.09
san1∆
  protein stability index: 2.94 ± 0.069
ubr1∆
  protein stability index: 2.28 ± 0.053

## MANDLVQARDNSQVFGV [RPS14B]
doa10∆
  protein stability index: 2.39 ± 0.076
pdr5∆
  protein stability index: 2.36 ± 0.061
san1∆
  protein stability index: 2.81 ± 0.049
ubr1∆
  protein stability index: 2.97 ± 0.063

## VRHGRAGATTSRFIPLK [RPS15]
doa10∆
  protein stability index: 2.62 ± 0.076
pdr5∆
  protein stability index: 2.56 ± 0.062
san1∆
  protein stability index: 2.89 ± 0.042
ubr1∆
  protein stability index: 3.06 ± 0.064

## TYKYFEVILVDPQHKAI [RPL15A]
doa10∆
  protein stability index: 2.32 ± 0.083
pdr5∆
  protein stability index: 2.09 ± 0.074
san1∆
  protein stability index: 2.5 ± 0.15
ubr1∆
  protein stability index: 2.63 ± 0.12

## DLKKKLNSLKDERSQGE [SMC4]
doa10∆
  protein stability index: 3.43 ± 0.14
pdr5∆
  protein stability index: 3.16 ± 0.25
san1∆
  protein stability index: 3.06 ± 0.16
ubr1∆
  protein stability index: 3.71 ± 0.25

## PFDQNLDSNNNNSNSNN [SWI1]
doa10∆
  protein stability index: 2.65 ± 0.033
pdr5∆
  protein stability index: 2.74 ± 0.037
san1∆
  protein stability index: 2.839 ± 0.026
ubr1∆
  protein stability index: 2.74 ± 0.027

## LVSEARTLWPEFIPPDP [SSN8]
doa10∆
  protein stability index: 2.61 ± 0.041
pdr5∆
  protein stability index: 2.8 ± 0.043
san1∆
  protein stability index: 2.73 ± 0.038
ubr1∆
  protein stability index: 3.03 ± 0.033

## QPTIRKDGLKLVGSWKK [RPO21]
doa10∆
  protein stability index: 3.52 ± 0.19
san1∆
  protein stability index: 3.3 ± 0.14

## ESITYQKIMILQRTILN [RGR1]
doa10∆
  protein stability index: 1.61 ± 0.069
pdr5∆
  protein stability index: 1.69 ± 0.06
san1∆
  protein stability index: 1.49 ± 0.099
ubr1∆
  protein stability index: 2.06 ± 0.065

## TPISNEQTEGEPKKKRG [SRP68]
doa10∆
  protein stability index: 3.16 ± 0.12
pdr5∆
  protein stability index: 3.27 ± 0.17
san1∆
  protein stability index: 3.27 ± 0.11
ubr1∆
  protein stability index: 3.27 ± 0.068

## IVPLTEGDIQVLKSYGA [RPT1]
doa10∆
  protein stability index: 3.14 ± 0.09
pdr5∆
  protein stability index: 3.14 ± 0.11
san1∆
  protein stability index: 2.77 ± 0.062
ubr1∆
  protein stability index: 2.99 ± 0.052

## FAVALKNEPDYSKAKYP [CDC53]
doa10∆
  protein stability index: 2.88 ± 0.078
pdr5∆
  protein stability index: 2.46 ± 0.081
san1∆
  protein stability index: 2.37 ± 0.098
ubr1∆
  protein stability index: 2.34 ± 0.092

## QDEAELVEEKTPGLTFN [RPC82]
pdr5∆
  protein stability index: 3.62 ± 0.29
ubr1∆
  protein stability index: 3.35 ± 0.12

## SARGIETRPAQVILPMS [FAS2]
doa10∆
  protein stability index: 3.06 ± 0.08
pdr5∆
  protein stability index: 2.93 ± 0.073
san1∆
  protein stability index: 3 ± 0.068
ubr1∆
  protein stability index: 3.16 ± 0.082

## NVNNNNIGQQQVKKPRK [SWI1]
doa10∆
  protein stability index: 3.42 ± 0.12
pdr5∆
  protein stability index: 3.37 ± 0.16
san1∆
  protein stability index: 3.29 ± 0.084
ubr1∆
  protein stability index: 3.13 ± 0.21

## LVPTASFFIASQLQEQF [FAS1]
doa10∆
  protein stability index: 1.35 ± 0.047
pdr5∆
  protein stability index: 1.88 ± 0.053
san1∆
  protein stability index: 1.53 ± 0.086
ubr1∆
  protein stability index: 1.86 ± 0.04

## WTDPNLKSSLADVLSIL [RPN1]
doa10∆
  protein stability index: 2.94 ± 0.15
pdr5∆
  protein stability index: 2.98 ± 0.14
san1∆
  protein stability index: 2.94 ± 0.096
ubr1∆
  protein stability index: 2.65 ± 0.068

## TWEECVFFDDDPLYDIT [REC8]
doa10∆
  protein stability index: 3 ± 0.13
pdr5∆
  protein stability index: 3.24 ± 0.14
san1∆
  protein stability index: 2.95 ± 0.06
ubr1∆
  protein stability index: 3.08 ± 0.059

## HYGQTLGKKKNVKEEET [RPS8A]
doa10∆
  protein stability index: 2.62 ± 0.035
pdr5∆
  protein stability index: 2.84 ± 0.035
san1∆
  protein stability index: 2.38 ± 0.033
ubr1∆
  protein stability index: 2.879 ± 0.026

## TKRESLNARMFLKYYGA [SIR2]
doa10∆
  protein stability index: 2.98 ± 0.11
pdr5∆
  protein stability index: 2.9 ± 0.098
san1∆
  protein stability index: 3.14 ± 0.11
ubr1∆
  protein stability index: 2.6 ± 0.1

## DATANATANATANATAN [DSN1]
doa10∆
  protein stability index: 3.25 ± 0.086
pdr5∆
  protein stability index: 3.04 ± 0.071
san1∆
  protein stability index: 3.37 ± 0.053
ubr1∆
  protein stability index: 3.12 ± 0.043

## TYAAEIAHNISAKNRVV [RPL32]
doa10∆
  protein stability index: 2.07 ± 0.043
pdr5∆
  protein stability index: 2.27 ± 0.052
san1∆
  protein stability index: 2.28 ± 0.068
ubr1∆
  protein stability index: 2.13 ± 0.039

## EVGDVCINELDNWNAPL [RPO31]
doa10∆
  protein stability index: 3.21 ± 0.086
pdr5∆
  protein stability index: 3.06 ± 0.074
san1∆
  protein stability index: 3.21 ± 0.052
ubr1∆
  protein stability index: 3.25 ± 0.053
